Measurements published in the DeepSol protein solubility set.

Assay: soluble on expression in E. coli; label from the status in PepcDB or PDB records

Row | Sequence | soluble on expression in E. coli
1 | MAHHHHHHMQKLRADWTKHFDSEKASMTAFRDYDFERRVNDMRRLQNAVDHFDHAVRQGMMAMKEIASAYEAVGQAFTELTLTNNNPVPGPGEAEEPNPYPTEADVQYMSQPNAGAAAADYAASVASTRMPDEANSQVRRLAKTFAEEARRINEGPPFQSYNAGIHRDVHNRLLPVLEHLKSINEYRHKHIEALERYNKYKAEVEKVEKHYTKKGKPFCDSKGHKKYTEKRDEAWKEYITRRDKFNKTFGMLMEVNDHAAAQIIHRYLVLNHEYLQQLVASMDRVLPAMAEVYPLNNEYNSLQNTLILEAVANAKTPFADHSKIRSKQADSDKSDGAGDERHEDVQEAMDAHYEAQQSTLTSMSSDGGSNLASGSRLEDSVSYDAHVNPSTALESMEQPPDPEQDDV | soluble
2 | ALYGNSSGGVINVTSQTGAQPPTVEASSYYGSFGTWHYGMKATGAVGDGSHAGDVDYTVSTNRFTTHGYRDHSGARKNLANARLGVRINDVSKLTLLLNSVDIKANDAGGLTADEWRDNPRQSPRGDQYNTRKNTRQTQAGLRYERQLSAQDDLSVMMYAGERETTQFQSIPRAPQLKPSHAGGVIDLTRHYQGIDTRLTHRGELLVPVTLTAGLDYENMSERRKGYENFVMVNGAPQYGEQGALRRNERNLMWNVDPYLQTQWQLTDKLSLDAGVRYSSVWFDSNDYYITPGNGDDSGDASYHKWLPAGSLKYALTDAWNVYLSAGRGFETPTINELSYRSDNQSGLNFGLKPSTNDTVEIGSKTRIGNGLFTAALFQTNTDNEIVVDSSSGGRTSYKNAGKTRRQGMELGLDQQFGESWRLKAAWTWLDATYRTNVCDDASCNGNRIPGIARNMGYASFGYQPEQGWYAGSDIRYMSDIMANDENTAKAPSWTVVGLTTGYKWSYGRMDMDLFGRIDNLFDREYVGSVIVNESNGRYYEPAPGRNYGIGLNLAWRFE | not soluble
3 | MAMEKPVLWYIADPMCSWCWGFAPVIENIRQEYSAFLTVKIMPGGLRPGTNTPLLPEKRAQILHHWHSVHITTGQPFTFENALPEGFIYDTEPACRGVVSVSLIEPEKVFPFFAAIQRAFYVGQEDVAQLAILKKLAVDLGIPESRFTPVFQSDEAKQRTLAGFQRVAQWGISGFPALVVESGTDRYLITTGYRPIEALRQLLDTWLQQHGV | soluble
4 | MAEKTRYSDAELEEFRAIIMEKLELAQRDYDQLKMSLMGLDGNDTDDTSPTYKVLEEGANTLSKEETTRLAQRQLKFIQGLQAALVRIENKTYGICRETGKLIPAERLRAVPHATLSIEAKNSGKK | not soluble
5 | MGSSHHHHHHSSGRENLYFQGHMLLHIPAIFTAEEVSRIRAALEQAEWADGKATAGYQSAKAKHNLQLPQDHPLAREIGEAMLQRLWNHPLFMSAALPLKVFPPLFNCYTGGGSFDFHIDNAVRDVHGGRERVRTDLSSTLFFSDPEDYDGGELVIQDTYGLQQVKLPAGDLVLYPGTSLHKVNPVTRGARYASFFWTQSLVREDSQRTLLFEMDQSIQRLTRDVPDHPSLIRLTGTYHNLLRRWSEL | soluble
6 | MGSDKIHHHHHHMKTIKGPAIFLAQFMSDVAPFNNLKNICDWAASLGYKGVQIPSWDVRCIDLQKAAESKTYCDEIKAVVHAAGLEITELTSHLQGQLVASHAAYDAAFDVFAPAAIHNNPKARAEWATQQLMYAAKASQNLGLTAHATFSGALLWHTMYPWPQRKAGSVEEGFTELAKRWLPILNAFDQAGVDLCYEIHPGEDLHDGITFERFLKATDNHSRAHILYDPSHFVLQQLNYLDYIDIYHEHIKMFHVKDAEFNPSGRAGVYGGYQDWIDRPGRFRSLGDGQVNFKAIFSKLTQYDFPGWAVLEWECCLKHPEDGAREGAAFIKNHIIRVADKAFDDFAG | not soluble
7 | MQVTSAEYLSNEESIKKGGNILMEKYNEKYNESIDGNKTLYKSYYESRRESIKNYNPDAKYINEIESIYMMLGEIYPNAPDFMSPHFEGDCSEGE | not soluble
8 | GPGSMSLPCPSSSSPLLGSITSGVRSPSRGPVQQQQLLHQRHASMRLRLHKDGSICACPEKSGGGVSQACAPPLPATSAFARGKEEPSAKRHHAEPSSCPGPGGDSSSVDRSAAATVVTIAAPLLSIPNPSSRAAPSPFRFLCTSVGGCPVVGAKDARVHLPDSSARCDVSGSVAPRDLSTTSAHSKAHSTAAVGRASPSSGVVSPPLSATYPSLVSASHGARVVCSHPQSASASTVPGATIDTSAPSPVPSPPHRIHQHELRPADFRREEVLGEGSYSIVTLATHRASGLSFALKEIDRSRLRWRPLEAQLRWEINLQRTLRHPHIVRLYSYFITPDCISLVLEYCSGGTLLSRLRAAPQYRLSERQASRYTRHVAKALVHLHGLGVAHRDLKLENVLIDADGIAKLADFGWSRSVVHPLPSSKSAAAAQTAGDRNDAPCSSAEHNTSNEDPTEGVAEGRRTVCGTLDYLSPEMVSGQAHSAKTDVWSLGVMLAEMLTGTPPFYTESTQETLYAIQRLPPNLTGLHPKGHGPGLTGSGASTSASVCLILDEPVALSAGALSLIHAMLQKDPSARPTMPEVLGHPWLQKKKLARKS | not soluble
9 | MAHLVITIGCEYGAKGNQIGKKVAKDLGIKFYDRDTVDEIIKEVGIPKDIMEKVEEGITIAGKGAEGDVRGSFSKYADLTERAIHVQKTIIRKLSDRESCVIIGRSADYILKEHKPILRIFIYSPDEVRIENVMKSHNLSEDDAKLFITEKDKRYHKRHMALTGSNRGDRHNRDMLIDSSLLGVDGTAELIESLARKVVENESKTEAGGDK | not soluble
10 | MGSDKIHHHHHHMRGRCPVSRAMMPTGPSGVEVSSVEMPGTKGVSVNLTRSLDGTVFTTLTRLSESVDMIDLVNEAVVQSLDEIAGYEAQLPSAKIATAMCFRAMQSITDYAPTTIEAADRLISNAYEIDPQPVFLAWRAYLRTFLLGESGGGNSQAISEEMERFINLAEEREPGNSIILSLAAFIRSMWLLSSEDALDLAQRSHALNPSNPYGISYLGMVHTHLGNFEEGYRLTRRANALTVPRGAKSSIRYVAMRSAACAGRYTEAIKIGEALGRDAPHFVAPKRLMGLLYMKCGRVADAEAMVETLRQHEPDYSMEKMRDAFRASPLLHRSKLGKAG | not soluble
11 | MSLNTENIRIIALGGVGEIGKNLYVIEIDSDIFVVDAGLMHPENEMLGIDVVIPDISYLIERSDRVKAIFLTHGHEENIGGVFYCLNKLSVPVYGTKLTLALLKETLKQYGVNKKPDLREIHSKSVITFESTKVSFFKTNHSIPDSVGVSFKTSLGSIVCTGDFKFDQTPVLNQTSDIGEIAKIGNSGVLCLLSDSANAEKPGYTPSEALVGGEISDVMYNAENRVIIAVFASNFNRIQQVIDAALQNGRKLAVSGKNISAILQLAMKLGYVTADEDMFIPVQEVKKYPKREVAILTGDNHGEPLAALTRIAKQGHKQLDIEEGDTVLIASSPIPGQELVYSKAVDLLTRAGAQVVFAQKRVHVSGHGCQEELKLMLNLLKPKYLIPVNGEYRMQKAHSKLAEEIGMKRSDIFLIEKGDVVEFRGQNVKIGDKVHSGNILIDGLGVGDIGNIVLRDRRLLSQDGILIVVITLDKKKKHLVSGPEIITRGFVYVRESEQLIVEATELVRELVNESTENAVVEWSALKQTMREALNQFLYEKTKRKPMIIPIIMEEGHHHHHH | soluble
12 | KGLMSKVKVITRGEATRLINKEDAVVVDLRQRDDFRKGHIAGAINLLPSDIKANNVGELEKHKSQPIIVVDGSGMQAQEPASALNKAGFEKVFVLKEGIAGWSGENLPLVRGK | not soluble
13 | MGSDKIHHHHHHNGDEKIDSGMVQQDGEVLQLNVRVGDFAINDVSSIRATDSGSTGTFENGDRIGIIVLDADNNVLSDNIPYRYDGNIWSFDSNNDEGKTTIYYDNKATVYLAYFPYSKEVDNVINIDDLKGKFLPQGDQRSKDAYRASDLLVWSDTSGRPLKKLDIVFEHAYSLLSLSPSIKCKINGRRDFTYVPSSISDVSFNVGTEPLFPYQMNDGSYQIIISPKRAKVRWLYEYNKEMYSGAMPDTDLSANTCYTFTPVLKDIGDYTLDKAQMGDFYCKDESNNGYLIPGDVTALSADMNCLGIVLKSGKDSEGEWVDYCKYKQKYGITEMHTVHGYVLALYDANGGNACTWGLWSLTDINRGEPSTGFYGYKNTQGIISFAENENRTLKNGFPPVYWVTDYEYSHPAPANSSGWFLPSLGQCWYWMYNKAYLLSAVNKATGDNDYGWKLGYWSSSEDDYDPFLNAYYADTYVGAMDWDYKNSKHCVRACLAF | not soluble
14 | MGKKKFIENEDGTTEVQETESEAPKDKKEKKEYRLRTLGANIKTSKKSFKEQFFMNYEDGLKLIKKMRGKGKGGQLVQKVMPRHISLPYHMSGKAAMEEACDWIAQNTVGKYRKEYKGIVVAVGSVDLASAPRVISDQYAFHTDVAINQIVFIPKIGDQYEAKVKYVQEGLMVGVVMDMITIHIKQNDKTSEDQVAIDDKILVKYSGIRIKSSLCHLKGEYVKMIEKAEIKEEEEVEDEADEETDVKEKVKEEEDEDEDMEE | not soluble
15 | GPGSMLRFTHRALTATPERFSVLGTTHPKPKRTGFGRNNKMRSKPSDNVAWYDKGPVEWLPRPVRLTYDHLDQLQQWMMRATLDGRTEEFNRIRDLHREWSQHPLMPVLGDVEPKFPLNLFKQNHRAKKRFLVRWHKANTPANWLWMPRGPTVVTPLHRTNPTQYPENWKQMVQRKSGTGTPS | not soluble
16 | MTSIQQRDAQSVLAAIDNLLPEIRDRAQATEDLRRLPDETVKALDDVGFFTLLQPQQWGGLQCDPALFFEATRRLASVCGSTGWVSSIVGVHNWHLALFDQRAQEEVWGEDPSTRISSSYAPMGAGVVVDGGYLVNGSWNWSSGCDHASWTFVGGPVIKDGRPVDFGSFLIPRSEYEIKDVWYVVGLRGTGSNTLVVKDVFVPRHRFLSYKAMNDHTAGGLATNSAPVYKMPWGTMHPTTISAPIVGMAYGAYAAHVEHQGKRVRAAFAGEKAKDDPFAKVRIAEAASDIDAAWRQLIGNVSDEYALLAAGKEIPFELRARARRDQVRATGRSIASIDRLFEASGATALSNEAPIQRFWRDAHAGRVHAANDPERAYVIFGNHEFGLPPGDTMV | soluble
17 | MHHHHHHSSGVDLGTENLYFQSMGLSRVRAVFFDLDNTLIDTAGASRRGMLEVIKLLQSKYHYKEEAEIICDKVQVKLSKECFHPYNTCITDLRTSHWEEAIQETKGGAANRKLAEECYFLWKSTRLQHMTLAEDVKAMLTELRKEVRLLLLTNGDRQTQREKIEACACQSYFDAVVVGGEQREEKPAPSIFYYCCNLLGVQPGDCVMVGDTLETDIQGGLNAGLKATVWINKNGIVPLKSSPVPHYMVSSVLELPALLQSIDCKVSMST | soluble
18 | SYVQEHRLWGLMDKPHSAPCLMSLSLSFLICNKGRNAIRVQQSTDERMDAMLLWQCPTQGTRKNHESNSSLHHVPNWIFHSTIIPPNKGSKRCLRKVDWLLPRAGGVGGKRGVTADGDRVSF | soluble
19 | MSLSNGAPGTRIASAVGAFDVSRRASLTRGAGEAVERFALVPVPADSEHLLARNGSADPQIDFVSAGLGHVSALACDVPWYRAVDLLTGKPTQVPAPVVDYTPGRGESNSWDAFFDPSPNGAASGPSEAFAQTSAIAEVMERDAFLAAWRHKIPLQKFDAKSMPVAVRQGAEARGLSLLLVAARAAGVEPTLAFIPNNGSPLLTAVCIITEEKGPVCYGAVGLKAASDPVSALKGALQEGLQIRELFLTRAHSADPASASPVSAPSVATVTDDDSRAHFWTTAPAIAELRRWVGSFQPSNFPSKQPEPDLDALVKHLAGRNVRSHWVNLTHRLPAAIRELGWVAGKAVCPGAVPLTMDETKELFVMPGSEGHHHHHH | soluble
